Reference: paper PMC4182932 (Current protocols in protein science / editorial board, …, 2014)

Target: the molecule itself
Test: AUC

B1: βB1-crystallin (natural protein, human, UniProt P53674 1-252, looked up)
chain: MSQAAKASASATVAVNPGPDTKGKGAPPAGTSPSPGTTLAPTTVPITSAKAAELPPGNYRLVVFELENFQGRRAEFSGECSNLADRGFDRVRSIIVSAGPWVAFEQSNFRGEMFILEKGEYPRWNTWSSSYRSDRLMSFRPIKMDAQEHKISLFEGANFKGNTIEIQGDDAPSLWVYGFSDRVGSVKVSSGTWVGYQYPGYRGYQYLLEPGDFRHWNEWGAFQPQMQSLRRLRDKQWHLEGSFPVLATEPPK
  stoichiometry N: 2
